Experimental data: US20050181450A1, “Novel inositol 1,4,5-trisphosphate (IP3) receptor-binding protein and an IP3 indicator” (priority 2002, published 2005)

Legend:
[1] = target: T1, GST-EL (mouse IP3R1 amino acids 1-2217) (Mus musculus, UniProt P11881, N1264K); experiment: GST pulldown with GST-EL; format: binding
T1 construct: construct a GST-IP3R1 (1-2217) vector (termed GST-EL); made in house; host or cells: Sf9 cells (baculovirus)
Description: Mouse cerebellar cytosolic fraction was diluted 2-fold with 10 mM Hepes (pH 7.4), 200 mM NaCl, 2 mM EDTA, 1 mM 2-ME and 0.02% Triton X-100. The high salt extract was diluted 5-fold with 10 mM Hepes (pH 7.4), 2 mM EDTA, 1 mM 2-ME and 0.01% Triton X-100. The diluted fractions (the final NaCl concentration of both fractions was 100 mM) were incubated with 20 μg of GST-EL or GST for 2 hours at 4° C. After adding 10 μl of glutathione-Sepharose and another 2 hours of incubation, the resins were washed 5 times with a wash buffer (10 mM Hepes (pH 7.4), 100 mM NaCl, 2 mM EDTA, 1 mM 2-ME, and 0.01% Triton X-100), and bound proteins were eluted with 20 mM glutathione.
The eluted proteins were analyzed by Western blotting with anti-IRBIT antibody. For dephosphorylation, the diluted high salt extract was incubated in the presence of or the absence of Escherichia coli alkaline phosphatase (Toyobo) with 2 mM MgCl2 for 30 minutes at 37° C. 5 mM EDTA was added, and then the resultant was subjected to pulldown assay as described above.
For the determination of the IP3R1-interacting region of IRBIT, Cos-7 cells expressing GFP-tagged full-length IRBIT or its truncated mutants were lysed in a lysis buffer (10 mM Hepes (pH7.4), 100 mM NaCl, 2 mM EDTA, 1 mM 2-ME, 0.5% Nonidet P-40, and protease inhibitor) for 30 minutes at 4° C., followed by centrifugation (100,000×g, 30 minutes). The supernatants were subjected to pulldown assay with GST-EL or GST as described above, and bound proteins were subjected to immunoblot analysis with anti-GFP antibody (Medical & Biological Laboratories).

[2] = target: T2, type II phosphatidylinositol phosphate kinase γ (Homo sapiens, UniProt Q8TBX8); experiment: Co-immunoprecipitation in Cos-7 cells with Myc-PIPKII γ; format: binding; details: overexpressing Cos-7 cells
T2 construct: expressed in transfected cells; host or cells: Cos-7
T2 sequence (Q8TBX8 1-421): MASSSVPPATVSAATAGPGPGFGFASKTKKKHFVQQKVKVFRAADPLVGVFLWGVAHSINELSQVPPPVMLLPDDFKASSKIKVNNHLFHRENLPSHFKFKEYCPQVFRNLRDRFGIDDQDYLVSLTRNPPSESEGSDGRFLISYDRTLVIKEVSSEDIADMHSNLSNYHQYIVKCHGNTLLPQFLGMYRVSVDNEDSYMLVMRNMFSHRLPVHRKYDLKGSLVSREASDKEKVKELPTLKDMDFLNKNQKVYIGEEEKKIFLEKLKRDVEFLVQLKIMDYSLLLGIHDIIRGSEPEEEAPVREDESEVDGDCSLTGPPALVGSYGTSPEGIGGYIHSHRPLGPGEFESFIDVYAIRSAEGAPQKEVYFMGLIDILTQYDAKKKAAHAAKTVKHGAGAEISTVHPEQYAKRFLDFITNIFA
Description: (§1) (A and B) IRBIT was transfected into Cos-7 cells with Myc-tagged type II phosphatidylinositol phosphate kinase α, β or γ (PIPKII α, β or γ). After two days, cells were lysed in lysis buffer, followed by centrifugation (100,000×g, 30 min). The supernatants were incubated with 3 μg of anti-IRBIT antibody, rabbit IgG, mouse anti-Myc antibody, or mouse IgG for 1 h at 4° C. After adding 5 μl of Protein G beads and another 1-h incubation, the beads were washed five times with lysis buffer and analyzed by Western blotting with anti-IRBIT antibody or HRP conjugated anti-Myc antibody. Immunoprecipitation of Myc-PIPKII α, β or γ with anti-Myc antibody co-precipitated IRBIT (A). In the reciprocal experiments, immunoprecipitation of IRBIT with anti-IRBIT antibody precipitated Myc-PIPKII α, β or γ.
as §1, with “IRBIT” for “(A and B) IRBIT”, “antibody.” for “antibody. Immunoprecipitation of Myc-PIPKII α, β or γ with anti-Myc antibody co-precipitated IRBIT (A). In the reciprocal experiments, immunoprecipitation of IRBIT with anti-IRBIT antibody precipitated Myc-PIPKII α, β or γ.”

T1 sequence (P11881 1-2217 N1264K): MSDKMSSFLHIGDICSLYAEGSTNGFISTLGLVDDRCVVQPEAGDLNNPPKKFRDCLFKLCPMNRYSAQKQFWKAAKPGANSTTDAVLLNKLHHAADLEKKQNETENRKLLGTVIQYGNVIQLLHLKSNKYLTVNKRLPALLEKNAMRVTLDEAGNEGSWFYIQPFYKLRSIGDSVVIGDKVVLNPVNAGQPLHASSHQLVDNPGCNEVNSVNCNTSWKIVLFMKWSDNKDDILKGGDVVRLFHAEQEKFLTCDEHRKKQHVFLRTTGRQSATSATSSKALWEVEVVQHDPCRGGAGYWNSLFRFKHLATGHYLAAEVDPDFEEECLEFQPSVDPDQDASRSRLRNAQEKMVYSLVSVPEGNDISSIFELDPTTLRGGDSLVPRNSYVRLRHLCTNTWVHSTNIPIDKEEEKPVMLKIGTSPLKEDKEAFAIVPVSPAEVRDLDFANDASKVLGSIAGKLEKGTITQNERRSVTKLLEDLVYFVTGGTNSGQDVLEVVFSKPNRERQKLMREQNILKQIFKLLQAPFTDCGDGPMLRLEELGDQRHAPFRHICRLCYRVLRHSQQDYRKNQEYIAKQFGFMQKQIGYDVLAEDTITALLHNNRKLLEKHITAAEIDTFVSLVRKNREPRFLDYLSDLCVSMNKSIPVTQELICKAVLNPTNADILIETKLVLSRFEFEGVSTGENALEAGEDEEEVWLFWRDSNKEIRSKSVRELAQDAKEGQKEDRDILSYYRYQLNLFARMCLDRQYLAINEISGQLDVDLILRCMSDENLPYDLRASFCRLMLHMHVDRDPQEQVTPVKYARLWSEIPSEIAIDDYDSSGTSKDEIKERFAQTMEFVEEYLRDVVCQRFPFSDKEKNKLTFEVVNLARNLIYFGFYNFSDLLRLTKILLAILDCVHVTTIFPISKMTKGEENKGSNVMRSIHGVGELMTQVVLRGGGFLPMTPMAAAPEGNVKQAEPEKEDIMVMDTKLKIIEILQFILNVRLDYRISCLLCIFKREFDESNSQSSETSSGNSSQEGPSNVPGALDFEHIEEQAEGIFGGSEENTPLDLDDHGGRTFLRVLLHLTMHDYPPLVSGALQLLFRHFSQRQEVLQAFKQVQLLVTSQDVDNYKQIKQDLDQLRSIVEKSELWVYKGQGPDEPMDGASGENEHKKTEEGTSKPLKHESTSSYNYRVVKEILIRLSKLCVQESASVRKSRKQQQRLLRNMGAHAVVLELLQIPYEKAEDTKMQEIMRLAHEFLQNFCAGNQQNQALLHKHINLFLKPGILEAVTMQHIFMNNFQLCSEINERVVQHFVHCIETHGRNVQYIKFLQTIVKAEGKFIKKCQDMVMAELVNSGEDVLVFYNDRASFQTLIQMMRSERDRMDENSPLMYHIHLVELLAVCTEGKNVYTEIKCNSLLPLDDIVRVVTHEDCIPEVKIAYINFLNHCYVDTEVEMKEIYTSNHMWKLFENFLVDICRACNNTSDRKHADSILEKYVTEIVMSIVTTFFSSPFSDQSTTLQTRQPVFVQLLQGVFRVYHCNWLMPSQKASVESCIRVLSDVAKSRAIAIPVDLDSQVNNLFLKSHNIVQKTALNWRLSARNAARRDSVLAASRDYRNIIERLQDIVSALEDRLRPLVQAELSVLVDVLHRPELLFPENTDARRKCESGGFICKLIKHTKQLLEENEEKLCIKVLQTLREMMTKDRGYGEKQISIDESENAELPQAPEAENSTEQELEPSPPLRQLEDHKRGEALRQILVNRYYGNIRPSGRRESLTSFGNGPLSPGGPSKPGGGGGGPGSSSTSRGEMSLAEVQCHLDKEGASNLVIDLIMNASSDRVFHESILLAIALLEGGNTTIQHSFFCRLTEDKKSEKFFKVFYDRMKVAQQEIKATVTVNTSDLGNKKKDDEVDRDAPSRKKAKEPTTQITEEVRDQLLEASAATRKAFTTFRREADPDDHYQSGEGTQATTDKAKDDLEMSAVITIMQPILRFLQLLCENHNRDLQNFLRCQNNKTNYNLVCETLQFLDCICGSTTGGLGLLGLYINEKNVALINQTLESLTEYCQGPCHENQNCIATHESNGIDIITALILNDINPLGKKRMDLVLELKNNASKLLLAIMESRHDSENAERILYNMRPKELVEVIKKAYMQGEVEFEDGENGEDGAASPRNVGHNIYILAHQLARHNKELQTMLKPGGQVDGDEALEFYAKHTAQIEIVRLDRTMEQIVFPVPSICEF

B1: IRBIT: novel IP3 receptor-binding protein of 530 amino acids, SEQ ID NO: 1 (protein, listed as Mus musculus)
chain: MSMPDAMPLPGVGEELKQAKEIEDAEKYSFMATVTKAPKKQIQFADDMQEFTKFPTKTGRRSLSRSISQSSTDSYSSAASYTDSSDDEVSPREKQQTNSKGSSNFCVKNIKQAEFGRREIEIAEQDMSALISLRKRAQGEKPLAGAKIVGCTHITAQTAVLIETLCALGAQCRWSACNIYSTQNEVAAALAEAGVAVFAWKGESEDDFWWCIDRCVNMDGWQANMILDDGGDLTHWVYKKYPNVFKKIRGIVEESVTGVHRLYQLSKAGKLCVPAMNVNDSVTKQKFDNLYCCRESILDGLKRTTDVMFGGKQVVVCGYGEVGKGCCAALKALGAIVYITEIDPICALQACMDGFRVVKLNEVIRQVDVVITCTGNKNVVTREHLDRMKNSCIVCNMGHSNTEIDVTSLRTPELTWERVRSQVDHVIWPDGKRVVLLAEGRLLNLSCSTVPTFVLSITATTQALALIELYNAPEGRYKQDVYLLPKKMDEYVASLHLPSFDAHLTELTDDQAKYLGLNKNGPFKPNYYRY
- interaction with GST-EL ([1]; IRBIT in high salt extract of mouse cerebellar crude microsome): interacted with GST-EL
- interaction with GST-EL ([1]; IRBIT in mouse cerebellar cytosolic fraction): did not interact with GST-EL
- interaction with GST-EL ([1]; high salt extract treated with alkaline phosphatase): did not interact with GST-EL
- interaction with PIPKII γ [2]: interacted
